Assay results reported in the supplement of paper PMC9170038.

System: MS2 coat protein
Assay: apparent KD of MS2 coat protein; designed switch direction (-1 OFF switch, 1 ON switch): 1; higher = weaker reporter binding
How it was run: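 Apparent KD, taken as the median over clusters for each design, was obtained by curve-fitting normalised cluster fluorescence. Designed RNA switches had been transcribed on Illumina chips by stalled E. coli RNA polymerase and titrated with SNAP-549-labelled MS2 coat protein, doubling from 0.7 or 1.5 nM to 3 µM.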

[1] = input ligand: microRNA oligo, concentration not stated
[2] = Eterna round: R95, input ligand: FMN 200 uM
[3] = Eterna round: R95, input ligand: microRNA oligo, concentration not stated
[4] = Eterna round: R95, input ligand: none

“GUGGAGAAUUAAGGAUAUCGAGUCAAGAUGUUAAACAUGAGGAUCACCCAUGUGGGUUGCGGUAUCGAGAAGGUAAAUUACGGG [salish99_SSNG2_r04_504] (Eterna round: R96, puzzle: Same State NG 2)” was tested, and the “apparent KD of MS2 coat protein” value (input ligand: FMN 200 uM) was 28.3 nM, the “apparent KD of MS2 coat protein” value [1] was 25.1 nM and the “apparent KD of MS2 coat protein” value (input ligand: none) was 34.1 nM.
With “CCGAUGGUAUACUAGGAUAUGGGCGCCCUUACAUGAGGAUCACCCAUGUUAUCACAAAUCCGCGGCCAGAAGGAGUUCAUGGGAG [Ustiririra] (Eterna round: R96, puzzle: Same State 2)” the “apparent KD of MS2 coat protein” value (input ligand: FMN 200 uM) was 165 nM, the “apparent KD of MS2 coat protein” value [1] was 173 nM and the “apparent KD of MS2 coat protein” value (input ligand: none) was 138 nM.
For “GGAGAGAGAGCGCAGGAUAUUUAAGGAGAAACAUGAGGAUCACCCAUGUGAGAGAGAGAGGAGAGAGAGAAGGGUGAGAGAGAGG [Altered State 2-16 - Jieux - Same State 2] (puzzle: Same State 2)”, the “apparent KD of MS2 coat protein” value [2] was 26.7 nM, the “apparent KD of MS2 coat protein” value [3] was 23.9 nM and the “apparent KD of MS2 coat protein” value [4] was 36.2 nM.
“GGUGGGUUACUACCAACACAUGAGGAUCACCCAUGUUUUGGGAAGGAUAUGGUACCUAUUUGGUACCAGAAGGUCCAGUUGGUG [salish99_SSNG3_r04_703] (Eterna round: R96, puzzle: Same State NG 3)” was tested, and the “apparent KD of MS2 coat protein” value (input ligand: FMN 200 uM) was 49.8 nM, the “apparent KD of MS2 coat protein” value [1] was 79.8 nM and the “apparent KD of MS2 coat protein” value (input ligand: none) was 125 nM.
In the case of “AUUACUAACAUAGGAUAUCAUGCGAAAAUUGCGUGAGAAGGGUGGACGCUGUCAUUCACGGAGGACAUGAGGAUCACCCAUGUC [SameState NG1 #72] (Eterna round: R96, puzzle: Same State NG 1)”, the “apparent KD of MS2 coat protein” value (input ligand: FMN 200 uM) was 264 nM, the “apparent KD of MS2 coat protein” value [1] was 103 nM and the “apparent KD of MS2 coat protein” value (input ligand: none) was 143 nM.
For “CUGCUCGGGUGAGGAUAUGCCGCCGUUUCGGCUGCAGAAGGUGCUACGUUACAUGAGGAUCACCCAUGUCUCUGUUGUUUCGUC [salish99_SSNG1_r04_967] (Eterna round: R96, puzzle: Same State NG 1)”, the “apparent KD of MS2 coat protein” value (input ligand: FMN 200 uM) was 74 nM, the “apparent KD of MS2 coat protein” value [1] was 41 nM and the “apparent KD of MS2 coat protein” value (input ligand: none) was 57.3 nM.
With “AGCUAUCGCGUACGAUAGCUGAAGCAUGUACAUGAGGAUCACCCAUGUCAUGUACAAGCUUUUUGCUCGUCUUAUUG [JL-shm-2.26 JL mod] (puzzle: Sensor for hsa-mir-208a)” the “apparent KD of MS2 coat protein” value [2] was 341 nM, the “apparent KD of MS2 coat protein” value [3] was 14.2 nM and the “apparent KD of MS2 coat protein” value [4] was 347 nM.
In the case of “UUAAUUAAUUAAUUAUACAUGAGGAUCACCCAUGUAAGUGAUCAGGAUAUCAGCUCGAAUAGAGCUGAGAAGGGAUACAUGUAA [SSNG3/13-A1] (Eterna round: R96, puzzle: Same State NG 3)”, the “apparent KD of MS2 coat protein” value [1] was 148 nM.
“AACGUGUAGGAAGGAUAUAUUGUUCAAGGGAUUGCAAUCUCUAACAUGAGGAUCACCCAUGUAGAGUAGAAGGUCCACCGCAGG [Eternabot solution 40] (Eterna round: R96, puzzle: Same State NG 2)” was tested, and the “apparent KD of MS2 coat protein” value (input ligand: FMN 200 uM) was 14.1 nM, the “apparent KD of MS2 coat protein” value [1] was 13.5 nM and the “apparent KD of MS2 coat protein” value (input ligand: none) was 19.2 nM.
In the case of “GCUCGAUGAGCGUCCUACAUGAGGAUCACCCAUGUUCGUGGGCAGGAUAUUUACAUGCAGAGUGUAGAGAAGGGCCCAUCGAGC [SameState NG3 #65] (Eterna round: R96, puzzle: Same State NG 3)”, the “apparent KD of MS2 coat protein” value (input ligand: FMN 200 uM) was 546 nM, the “apparent KD of MS2 coat protein” value [1] was 482 nM and the “apparent KD of MS2 coat protein” value (input ligand: none) was 477 nM.
“ACAUGAGAUUGAGGAUAUAUUGUACCUACAUGUGACAUGAGGAUCACCCAUGUGGUAAGUAUGACAUAGAAGGCAAAGAUAUGU [Equivalance 81 - Jieux - Same State NG 2] (Eterna round: R96, puzzle: Same State NG 2)” was tested, and the “apparent KD of MS2 coat protein” value (input ligand: FMN 200 uM) was 87.1 nM, the “apparent KD of MS2 coat protein” value [1] was 54.1 nM and the “apparent KD of MS2 coat protein” value (input ligand: none) was 74.4 nM.
For “AGUCCAGCCUGAGCUGGACAAAAGCAUGUACAUGAGGAUCACCCAUGUUCAUGUACAAGCUUUUUGCUCGUCUUAGU [salish99_208a_r3_061] (puzzle: Sensor for hsa-mir-208a)”, the “apparent KD of MS2 coat protein” value [2] was 481 nM, the “apparent KD of MS2 coat protein” value [3] was 15.1 nM and the “apparent KD of MS2 coat protein” value [4] was 528 nM.
For “CAGCCACAAAAUACGGCUGAAACAUGAGGAUCACCCAUGUCACAGGAUAUCCAACGGUAUACCGCGGAGAAGGGUGCGAAGAAC [Ceusso] (Eterna round: R96, puzzle: Same State NG 3)”, the “apparent KD of MS2 coat protein” value (input ligand: FMN 200 uM) was 73.7 nM, the “apparent KD of MS2 coat protein” value [1] was 73.8 nM and the “apparent KD of MS2 coat protein” value (input ligand: none) was 52.4 nM.
“GGUCCAUCAUGAGGAUAUGGCACCUUAUUGGUGCCAGAAGGCAUGUAAAUUAUAAUAAAACAUGAGGAUCACCCAUGUUGGACC [Eli NG1ss - 97] (Eterna round: R96, puzzle: Same State NG 1)” was tested, and the “apparent KD of MS2 coat protein” value (input ligand: FMN 200 uM) was 857 nM, the “apparent KD of MS2 coat protein” value [1] was 19.5 nM and the “apparent KD of MS2 coat protein” value (input ligand: none) was 78.4 nM.
In the case of “AUUAAACAUGAGGAUCACCCAUGUCAACAAAGUCGAGGAUAUGGGCAAAUAUAAUAAGAACCAGAAGGCGAAUAAU [salish99_ss1_r3_059] (puzzle: Same State 1)”, the “apparent KD of MS2 coat protein” value [2] was 28 nM, the “apparent KD of MS2 coat protein” value [3] was 190 nM and the “apparent KD of MS2 coat protein” value [4] was 227 nM.
